In publication PMC11267003, “Interdomain communication in a homodimeric ABC transporter” (The Journal of Biological Chemistry, 2024):
Changes are numbered by the printed parent chain. Names and notes keep the numbering of the source. No end group written: not given here. *: point of attachment. Fluorescein(5-NHCOCH2) = O=C(C*)Nc1ccc2c(c1)C(=O)OC21c2ccc(O)cc2Oc2cc(O)ccc21

B1: human coreTAPL D278A, C-terminal mVenus-His10 fusion (complex, UniProt Q9NP78 143-766, looked up)
chain: GTQALEPGAATEAEGFPGSGRPPPEQASGATLQKLLSYTKPDVAFLVAASFFLIVAALGETFLPYYTGRAIDGIVIQKSMDQFSTAVVIVCLLAIGSSFAAGIRGGIFTLIFARLNIRLRNCLFRSLVSQETSFFAENRTGDLISRLTSDTTMVSDLVSQNINVFLRNTVKVTGVVVFMFSLSWQLSLVTFMGFPIIMMVSNIYGKYYKRLSKEVQNALARASNTAEETISAMKTVRSFANEEEEAEVYLRKLQQVYKLNRKEAAAYMYYVWGSGLTLLVVQVSILYYGGHLVISGQMTSGNLIAFIIYEFVLGDCMESVGSVYSGLMQGVGAAEKVFEFIDRQPTMVHDGSLAPDHLEGRVDFENVTFTYRTRPHTQVLQNVSFSLSPGKVTALVGPSGSGKSSCVNILENFYPLEGGRVLLDGKPISAYDHKYLHRVISLVSQEPVLFARSITDNISYGLPTVPFEMVVEAAQKANAHGFIMELQDGYSTETGEKGAQLSGGQKQRVAMARALVRNPPVLILDEATSALDAESEYLIQQAIHGNLQKHTVLIIAHRLSTVEHAHLIVVLDKGRVVQQGTHQQLLAQGGLYAKLVQRQMLGLQPAADFTAGHNEPVANGSHKA
notes: human TAPL (ABCB9), coreTAPL, amino acids 143-766; Mutant of the mVenus fusion construct; TEV site between coreTAPL and mVenus; also called D278A^mV; source: Sf21 insect cells (baculovirus), purified by Ni-NTA after solubilisation in GDN or DDM; reconstituted into liposomes for transport and hydrolysis assays; not shown: mVenus, C-terminal, kept
B2: human coreTAPL wildtype (transporter associated with antigen processing-like, ABCB9), C-terminal mVenus-His10 fusion (complex, UniProt Q9NP78 143-766, looked up)
chain: B1 chain with A136D
notes: human TAPL (ABCB9), coreTAPL without the N-terminal TMD0, amino acids 143-766; A tobacco etch virus cleavage site lies between coreTAPL and mVenus; no cleavage is reported for the mVenus constructs, so the His10 behind mVenus was probably still there; also called wt; wt TAPL; source: Sf21 insect cells (baculovirus), purified by Ni-NTA after solubilisation in GDN or DDM; reconstituted into …
B3: human coreTAPL R288A, C-terminal mVenus-His10 fusion (complex, UniProt Q9NP78 143-766, looked up)
chain: B1 chain with A136D, R146A
notes: human TAPL (ABCB9), coreTAPL, amino acids 143-766; Mutant of the mVenus fusion construct; TEV site between coreTAPL and mVenus; also called R288A^mV; source: Sf21 insect cells (baculovirus), purified by Ni-NTA after solubilisation in GDN or DDM; reconstituted into liposomes for transport and hydrolysis assays; not shown: mVenus, C-terminal, kept
B4: human coreTAPL D292A, C-terminal mVenus-His10 fusion (complex, UniProt Q9NP78 143-766, looked up)
chain: B1 chain with A136D, D150A
notes: human TAPL (ABCB9), coreTAPL, amino acids 143-766; Mutant of the mVenus fusion construct; TEV site between coreTAPL and mVenus; also called D292A^mV; source: Sf21 insect cells (baculovirus), purified by Ni-NTA after solubilisation in GDN or DDM; reconstituted into liposomes for transport and hydrolysis assays; not shown: mVenus, C-terminal, kept
B5: peptide C4^Atto-655 (RRYC^Atto-655KSTEL) (peptide)
peptide: RRYC(Atto‑655)KSTEL
notes: synthetic 9-mer peptide C4; source: synthetic peptide (Fmoc solid-phase synthesis), labelled, purified by reversed-phase HPLC

What was measured:
[1] = molecular target: human coreTAPL (TAPL, ABCB9) (Homo sapiens, UniProt Q9NP78); experiment: biochemical
human coreTAPL (TAPL, ABCB9) (Homo sapiens, UniProt Q9NP78), sequence (Q9NP78 143-766): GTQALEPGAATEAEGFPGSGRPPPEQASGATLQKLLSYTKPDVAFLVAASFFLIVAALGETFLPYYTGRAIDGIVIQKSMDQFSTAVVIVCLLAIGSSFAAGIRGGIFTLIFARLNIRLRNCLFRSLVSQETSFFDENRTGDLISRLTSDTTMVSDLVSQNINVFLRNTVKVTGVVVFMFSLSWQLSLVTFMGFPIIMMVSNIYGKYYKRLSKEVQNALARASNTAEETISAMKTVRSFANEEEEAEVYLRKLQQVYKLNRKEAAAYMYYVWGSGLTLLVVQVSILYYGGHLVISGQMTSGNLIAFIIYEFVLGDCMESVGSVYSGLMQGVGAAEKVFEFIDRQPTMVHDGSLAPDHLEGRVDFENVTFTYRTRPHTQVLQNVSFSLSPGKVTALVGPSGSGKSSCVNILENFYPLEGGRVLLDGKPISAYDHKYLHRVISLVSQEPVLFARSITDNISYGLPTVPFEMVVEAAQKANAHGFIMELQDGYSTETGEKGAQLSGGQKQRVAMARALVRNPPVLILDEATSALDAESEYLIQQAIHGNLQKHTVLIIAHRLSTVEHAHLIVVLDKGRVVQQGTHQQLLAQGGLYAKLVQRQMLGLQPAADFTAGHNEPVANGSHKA

[2] = molecular target: human coreTAPL (TAPL, ABCB9) (Homo sapiens, UniProt Q9NP78, R288A); experiment: biochemical
human coreTAPL (TAPL, ABCB9) (Homo sapiens, UniProt Q9NP78, R288A), sequence (Q9NP78 143-766 R288A): as the sequence (Q9NP78 143-766) above, with R146A counted along it

[3] = molecular target: human coreTAPL (TAPL, ABCB9) (Homo sapiens, UniProt Q9NP78, D278A); experiment: biochemical
[4] = molecular target: human coreTAPL (TAPL, ABCB9) (Homo sapiens, UniProt Q9NP78, D292A); experiment: biochemical
human coreTAPL (TAPL, ABCB9) (Homo sapiens, UniProt Q9NP78, D292A), sequence (Q9NP78 143-766 D292A): as the sequence (Q9NP78 143-766) above, with D150A counted along it

[5] = molecular target: the molecule itself; experiment: SEC; analytical, Superose 6 Increase 3.2/300, 20 mM Hepes, 140 mM NaCl, 100 mM imidazole, 15% glycerol, 0.1% GDN, pH 7.5, 4 °C; absorbance at 280 and 515 nm
[6] = molecular target: T1, human coreTAPL wildtype (transporter associated with antigen processing-like, ABCB9), C-terminal mVenus-His10 fusion (human) (UniProt Q9NP78)
T1 sequence: B1 chain with A136D

[7] = molecular target: T2, human coreTAPL D292A, C-terminal mVenus-His10 fusion (human) (UniProt Q9NP78)
T2 sequence: B1 chain with A136D, D150A

[8] = molecular target: T3, human coreTAPL R288A, C-terminal mVenus-His10 fusion (human) (UniProt Q9NP78)
T3 sequence: B1 chain with A136D, R146A

[9] = molecular target: T3, human coreTAPL R288A, C-terminal mVenus-His10 fusion (human); remark: listed apart in the source
[10] = molecular target: B3; experiment: MST; 5 nM C4^Atto-655 with 5 μM GDN-purified TAPL variant in GDN-containing elution buffer, 22 °C, single concentration; details: both partners purified
[11] = molecular target: B1; experiment: as above; details: both partners purified
[12] = molecular target: B4; experiment: as above; details: both partners purified
[13] = molecular target: B2; experiment: as above; details: both partners purified

Nc1ncnc2c1ncn2[C@@H]1O[C@H](COP(=O)(O)OP(=O)(O)OP(=O)(O)O)[C@@H](O)[C@H]1O [ATP]
IC50 [1]: 1900 ± 1300 nM | IC50 [2]: 5600 ± 1700 nM | IC50 [3]: 900 ± 200 nM | IC50 [4]: 1300 ± 800 nM

B1
binding result [5]: binds

B2
binding result [5]: binds

B3
binding result [5]: binds

B4
binding result [5]: binds

RRYQNSTC(Fluorescein(5-NHCOCH2))L [peptide NST^FL (RRYQNSTC^FLL)]
K (m,peptide) of peptide transport into proteoliposomes (0 to 30 μM NST^FL, 10 min, 37 °C) [6]: 4.1 µM | K (m,peptide) of peptide transport into proteoliposomes (0 to 30 μM NST^FL, 10 min, 37 °C) [7]: 2.5 µM | K (m,peptide) of peptide transport into proteoliposomes (0 to 30 μM NST^FL, 10 min, 37 °C) [8]: 2.2 µM

RRYQKSTEL [peptide R9L (…)]
IC50 of the decrease of ATP hydrolysis in proteoliposomes by R9L (0–300 μM, 0.3 mM ATP, 15 min, 37 °C) [9]: 9500 nM

B5
binding result [10]: binds | binding result [11]: binds | binding result [12]: binds | binding result [13]: binds
